The text below walks through data of US20100015155A1 (Eli Lilly, published 2010).

The target of assay [1] is T1, human soluble Abeta (1-40) (human, UniProt P05067 672-711).
T1 construct: domain: Abeta (1-40); The numbers 1-40 count on the Aβ peptide, not on the APP precursor entry; also called Human Abeta (1-40); human abeta
In words: KinExA equilibrium, ratio of KD values. The protocol: (§1) KinExA analysis is used as an orthogonal approach to measure binding affinity through equilibrium binding analysis due to the slow off-rate of the antigen Fab complex. A KinExA 3000 instrument (Sapidyne Inst. Inc.) is used to measure binding kinetics. Briefly, the antigen is covalently coupled to sepharose beads and the binding of free Fab/Fab-PEG to the beads is detected on the instrument. […] After the incubation, free Fab/Fab-PEG in each equilibrated sample is determined on the KinExA 3000 according to the manufacturer's instructions. Kd values are determined by n-Curve Analysis using KinExA 3000 software.
(In general: In KinExA the mixture passes briefly over coated beads that capture the unbound partner.)

Assay [2] concerns the target T1, human soluble Abeta (1-40). Put plainly: KinExA equilibrium, antigen on sepharose beads, soluble Abeta (1-40) titrated, 37 C; 1A1 Fab, not PEGylated. The method, then: as §1

T1 sequence (P05067 672-711 limits assumed): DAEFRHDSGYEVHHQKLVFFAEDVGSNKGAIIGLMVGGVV

B1: 1A1-Fab (humanized antibody Fab fragment, LCVR of SEQ ID NO: 1 and HCVR of SEQ ID NO: 2) (Fab, V domains shown)
VH: EVQLVESGGGLVKPGGSLRLSCAASGYTFSRYSMSWVRQAPGKGLEWVGQINIRGCNTYYPDTVKGRFTISRDDSKNTLYLQMNSLKTEDTAVYYCTTGDFWGQGTLVTVSS
VL: DIVMTQTPLSLSVTPGQPASISCSSSQSLIYSDGNAYLHWYLQKPGQSPQLLIYKVSNRFSGVPDRFSGSGSGTDFTLKISRVEAEDVGVYYCTQSTHSPWTFGGGTKVEIK
notes: Fab without PEG; CH1 and CL are not; The light chain is human kappa, since it is captured or detected with anti-human kappa; also called humanized 1A1-Fab; 1A1 N56C Fab
One may read the Kd as a measure of binding affinity in units of concentration. A low value points to tighter binding. For the molecule B1, in assay [1], the “fold affinity against murine 266 Fab” value was approximately 10 fold. This molecule also displayed a Kd in assay [2] of 0.019 nM.
